Measured values published in patent publication US7294701B2, “Antibody fragment capable of modulating multidrug resistance and compositions and kits and methods using same” (Technion Research & Development Foundation Ltd., priority 2003, dated 2007).
Several values for one entry are separate records, joined by “and”; a condition that tells them apart may be missing. Identical values can stand only once. Entries after “also recorded” stand apart in the source; their conditions may differ. Like-named read-outs stand apart in the source and are kept apart here.

Columns and labels:
[1] = system: non-target MRP1 control peptide; test: ELISA binding specificity, non-target control peptide; settings: FIG. 1b
Procedure: (§1) The binding specificity of the purified A2 scFv antibody was determined via ELISA. A biotinylated target peptide having the amino acid sequence of SEQ ID NO:1, or a non-target MRP1 control peptide (provided at 10 μg in 100 μl) were each immobilized onto a flexible microtiter plate using BSA-biotin-streptavidin. A purified A2 scFv was then added, at different concentrations, to the peptide-coated plate and was detected with an anti Myc tag-HRP conjugate antibody.

[2] = biological target: T1, Pgp on MDR epidermoid carcinoma cells KBV-1 (Homo sapiens, UniProt P08183); test: immunofluorescence flow-cytometer analysis of cell binding; settings: KBV-1, A2 scFv 50 μg/ml, FIG. 2d
T1 construct: MDR and Pgp-overexpressing human carcinoma cells KBV-1; endogenous in cells; host or cells: KBV-1 (KB-V1; drug-selected human epidermoid carcinoma, derived from KB3-1)
T1 sequence (P08183 whole entry): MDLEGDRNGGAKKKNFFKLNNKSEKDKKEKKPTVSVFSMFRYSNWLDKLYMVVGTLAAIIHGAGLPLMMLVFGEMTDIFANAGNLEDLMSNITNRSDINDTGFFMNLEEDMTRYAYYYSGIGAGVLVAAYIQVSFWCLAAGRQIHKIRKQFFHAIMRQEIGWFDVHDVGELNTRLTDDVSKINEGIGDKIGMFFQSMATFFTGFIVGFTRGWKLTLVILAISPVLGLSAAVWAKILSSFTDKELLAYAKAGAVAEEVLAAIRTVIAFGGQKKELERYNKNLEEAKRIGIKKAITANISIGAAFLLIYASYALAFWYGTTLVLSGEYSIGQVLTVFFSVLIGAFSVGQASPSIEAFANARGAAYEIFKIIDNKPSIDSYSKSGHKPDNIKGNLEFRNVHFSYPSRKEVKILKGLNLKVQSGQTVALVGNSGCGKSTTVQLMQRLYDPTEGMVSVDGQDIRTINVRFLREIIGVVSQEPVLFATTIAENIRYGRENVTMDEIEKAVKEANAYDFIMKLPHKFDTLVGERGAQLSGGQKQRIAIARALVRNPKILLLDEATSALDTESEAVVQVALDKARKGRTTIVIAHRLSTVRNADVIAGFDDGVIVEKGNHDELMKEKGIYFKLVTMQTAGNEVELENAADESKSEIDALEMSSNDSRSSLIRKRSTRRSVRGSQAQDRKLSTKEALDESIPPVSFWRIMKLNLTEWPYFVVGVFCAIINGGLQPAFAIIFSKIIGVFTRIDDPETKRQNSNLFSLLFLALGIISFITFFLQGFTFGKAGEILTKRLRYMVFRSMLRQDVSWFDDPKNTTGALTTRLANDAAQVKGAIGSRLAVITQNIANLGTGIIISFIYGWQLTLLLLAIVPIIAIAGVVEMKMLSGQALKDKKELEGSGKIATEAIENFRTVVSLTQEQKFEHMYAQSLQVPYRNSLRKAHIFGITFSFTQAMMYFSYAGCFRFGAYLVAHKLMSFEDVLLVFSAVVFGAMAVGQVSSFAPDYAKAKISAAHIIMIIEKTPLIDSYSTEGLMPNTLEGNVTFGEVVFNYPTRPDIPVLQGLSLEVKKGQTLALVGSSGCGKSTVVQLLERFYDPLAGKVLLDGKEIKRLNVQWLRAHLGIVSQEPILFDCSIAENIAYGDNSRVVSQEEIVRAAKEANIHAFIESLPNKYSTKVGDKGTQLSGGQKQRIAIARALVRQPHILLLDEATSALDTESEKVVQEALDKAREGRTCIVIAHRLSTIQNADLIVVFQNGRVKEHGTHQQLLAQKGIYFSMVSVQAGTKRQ
Procedure: (§2) In another series of experiments, the reactivity and specificity of A2 scFv to Pgp, expressed on the surface of MDR cells, was evaluated. […] The MDR cell lines and the drug-sensitive cell lines used in these experiments are described in Table 2 below.
(§3) Cells growing on six well tissue culture plates were washed twice followed by incubation with soluble purified A2 scFv (50 μg/ml) for 90 minutes on ice. Detection was with anti-Myc (30 μg/ml) and FITC-labeled anti-mouse IgG (1:1000, Jackson). Detection of fluorescent cells was performed on a FACScalibur (Becton Dickinson).

[3] = biological target: T2, Pgp on MDR ovarian carcinoma cells 2780^ADR (Homo sapiens, UniProt P08183); test: as above; settings: A2 scFv 50 μg/ml, FIG. 2b
T2 construct: MDR and Pgp-overexpressing ovarian carcinoma cells 2780^ADR; endogenous in cells; host or cells: 2780^ADR (drug-selected human ovarian carcinoma)
T2 sequence (P08183 whole entry): as above
Procedure: as §2, §3

[4] = system: drug-sensitive cells KB3-1; test: immuno-histochemical staining; assay type: binding, human; settings: drug-sensitive KB3-1, A2 scFv 0.2 mg/ml, FIG. 2h
Procedure: (§4) Drug sensitive cells and MDR cells were grown to 50% confluence on glass slides, pre-coated with 4% gelatin in PBS, fixed with 2% formaldehyde in PBS, blocked with 1% BSA in PBS at room temperature, then followed by 90 min incubation with A2 scFv (0.2 mg/ml) in PBS containing 1% BSA (room temperature). The slides were then covered with HRP-labeled anti-Myc-antibody (1:500, in PBS containing 1% BSA) for 1 hr, washes with water, then covered with peroxidase substrate, (AEC) for 2-3 min. Slides were then washed with water and counter staining was performed with hematoxylin.

[5] = system: drug-sensitive cells 2780; test: immuno-histochemical staining; assay type: binding, human; settings: 2780, A2 scFv 0.2 mg/ml, FIG. 2f
Procedure: as §4

streptavidin = streptavidin (Streptomyces avidinii, UniProt P22629); test: ELISA binding specificity, streptavidin; settings: FIG. 1b
Procedure: as §1

KB3-1 cells = test: calcein-AM chromophore efflux assay, drug-sensitive cells; assay type: cell-based, human; settings: KB3-1, fluorometer, FIG. 4d
[6] = biological target: T2, Pgp on MDR ovarian carcinoma cells 2780^ADR; test: immuno-histochemical staining; assay type: binding; settings: A2 scFv 0.2 mg/ml, FIG. 2e
Procedure: as §4

[7] = biological target: T3, Pgp on MDR carcinoma cells KBV-1 (Homo sapiens, UniProt P08183); test: immuno-histochemical staining; assay type: binding; settings: MDR KBV-1, A2 scFv 0.2 mg/ml, FIG. 2g
T3 construct: MDR and Pgp-overexpressing human carcinoma cells KBV-1; endogenous in cells; host or cells: KBV-1 (KB-V1; drug-selected human epidermoid carcinoma, derived from KB3-1)
T3 sequence (P08183 whole entry): as above
Procedure: as §4

A8 cells = test: calcein-AM chromophore efflux assay, drug-sensitive cells; assay type: cell-based, rodent (CHO); settings: A8, fluorometer, FIG. 4e
[8] = biological target: T4, biotinylated Pgp-derived peptide (SEQ ID NO:1) (Homo sapiens, UniProt P08183); test: saturation ELISA; settings: interpolated, FIG. 1c
T4 construct: made in house; host or cells: chemical synthesis
Excerpt: The binding properties of A2 scFv were further characterized using a saturation ELISA. In this experiment, a biotinylated Pgp-derived peptide (SEQ ID NO:1) was bound to plates precoated with BSA-biotin and exposed to increasing amounts of A2 scFv.

2780 cells = test: calcein-AM chromophore efflux assay, drug-sensitive cells; assay type: cell-based, human; settings: 2780, fluorometer, FIG. 4c
2780^ADR cells = test: viability of doxorubicin-exposed cells by [3H]-leucine incorporation; assay type: cell-based, human; settings: A2 scFv 0.2 mg/ml before 5-10 μM doxorubicin
Procedure: Cells were pre-incubated with A2 scFv at a concentration of 0.2 mg/ml, then exposed to 5-10 μM of doxirubicin and then analyzed for [^3H]Leucine content.

[9] = biological target: T5, Pgp drug-efflux activity in 2780^ADR cells (Homo sapiens, UniProt P08183)
T5 sequence (P08183 whole entry): as above

[10] = biological target: T5, Pgp drug-efflux activity in 2780^ADR cells; test: calcein-AM chromophore efflux assay; settings: antibody given before calcein, FIGS. 3c, 3e
[11] = biological target: T6, Pgp drug-efflux activity in EMT^R1 cells (Cricetulus griseus, UniProt P21448); test: calcein-AM chromophore efflux assay; assay type: cell-based, rodent (CHO); settings: EMT^R1, fluorometer, FIG. 4a
T6 construct: a rodent (CHO) MDR cell line EMT^R1; endogenous in cells; host or cells: EMT^R1 (CHO, parental line A8)

[12] = biological target: T7, Pgp-derived peptide (SEQ ID NO:1) (Homo sapiens, UniProt P08183); test: competition binding radio-immunoassay with [125I]-labeled A2 scFv; settings: competition with [125I]-labeled A2 scFv, interpolated, FIG. 1d; read-out: concentration of cold competitor for 50% binding inhibition (affinity constant)
T7 construct: made in house; host or cells: chemical synthesis
Procedure: In a competition binding radio-immunoassay the purified A2 scFv (100 μg) was first labeled with [^125I] using the Bolton-Hunter reagent. The [^125I]-labeled A2 scFv antibody was added as a tracer (3-5×10^5 cpm/well) to a flexible microtiter plate, which had been pre-coated with BSA-biotin and the target peptide (SEQ ID NO:1), as described above. A non-labeled (i.e., cold) A2 scFv was then added, as a competitor, to the pre-coated plates at increasing concentrations. Plates were incubated for 1 hr at room temperature, then washed and analyzed by gamma counter.

[13] = system: drug-sensitive ovarian carcinoma cells 2780; test: immunofluorescence flow-cytometer analysis of cell binding; set-up: species or system human; settings: 2780, A2 scFv 50 μg/ml, FIG. 2a
Procedure: as §2, §3

[14] = system: drug-sensitive carcinoma cells KB3-1; test: as above; set-up: species or system human; settings: KB3-1, A2 scFv 50 μg/ml, FIG. 2c
Procedure: as §2, §3

B1: A2 scFv: novel anti-Pgp single-chain Fv, about 30 kDa, encoded by SEQ ID NO:2, directed to first extracellular loop peptide SEQ ID NO:1 (protein)
chain: QVQLQQSGPDLVKPGASVKISCKASGYSFTGYYMHWVKQSHGKSLEWIGRANPNNGGTSYNQKFKGKAILTVDKSSSTAYMELRSLTSEDSAVYYCARWDGAYWGQGTLVTVSSGGGGSGGGGSGGGGSDVVMTQTPLSLPVSLGDQASISCRSSQSIVHSNGNTYLEWYLQKPGQSPKLLIYKVSNRFSGVPDRFSGSGSGTDFTLKISRVEAEDLGVYYCFQGSHVPFTFGSGTKLELK
modifications: A2 single chain Fv coding sequence
For B1, the “binding to biotinylated non-target peptide” value [1] was “did not react”, the “reactivity with cells (flow cytometer)” value [2] was “strong reactivity; also recorded: substantial increase in fluorescent intensity” and the “increase in fluorescent intensity” value [3] was 10 fold. The “reactivity with cells (flow cytometer)” value [3] was “strong reactivity”, the “immuno-histochemical staining of cells” value [4] was “did not stain; also recorded: no antibody-cell reaction” and the “immuno-histochemical staining of cells” value [5] was “did not stain; also recorded: no antibody-cell reaction”. The binding to streptavidin (streptavidin) was “did not react”, the “effect on calcein uptake in drug-sensitive cells” value (KB3-1 cells) was “did not affect the level of calcein accumulation; also recorded: no effect” and the “immuno-histochemical staining of cells” value [6] was “intense in situ staining; also recorded: positive antibody-cell reaction”. The “immuno-histochemical staining of cells” value [7] was “intense in situ staining; also recorded: positive antibody-cell reaction”, the “effect on calcein uptake in drug-sensitive cells” value (A8 cells) was “did not affect the level of calcein accumulation; also recorded: no effect” and the Kd ([8]; listed as A2, read-out: concentration required for 50% of maximal binding (affinity constant)) was roughly 150 nM. The Kd ([8]; read-out: concentration required for 50% of maximal binding (affinity constant)) was 150 nM and ~150 nM, the “effect on calcein uptake in drug-sensitive cells” value (2780 cells) was “did not affect the level of calcein accumulation; also recorded: no effect” and the “viability of cells exposed to doxorubicin” value (2780^ADR cells) was “effectively reduced the viability of cells; also recorded: substantial loss of viability of cells”. For the same molecule, the IC50 [9] was 2600 nM, the “concentration of maximal inhibitory activity” value [9] was 100 µg/mL and the “effect on calcein uptake / drug efflux activity” value [10] was “substantial increase in fluorescence intensity; also recorded: substantially inhibited drug efflux activity; also recorded: positive dose-response effect”. For the same molecule, the “effect on calcein uptake” value [11] was “substantial increases in calcein accumulation; also recorded: substantially higher levels of fluorescence”, the Kd [12] was 130 nM and ~130 nM and the “reactivity with cells (flow cytometer)” value [13] was “no reactivity; also recorded: no effect on fluorescent intensity”. The “reactivity with cells (flow cytometer)” value [14] was “no reactivity; also recorded: no effect on fluorescent intensity”.
